Literature values as cited in patent US12628856B2, “Nutritional composition having lipophilic compounds with improved solubility and bioavailability” (Abbott Laboratories, priority 2013, dated 2026).
Each block holds one molecule with its values, some of them ahead of it.

Details: Kd Source: Published; read-out: Lutein Kd

Kd: 450 nM
B1: StARD3: reference protein with published lutein Kd (protein, UniProt Q14849 1-445, looked up)
StAR-related lipid transfer …: MSKLPRELTRDLERSLPAVASLGSSLSHSQSLSSHLLPPPEKRRAISDVRRTFCLFVTFDLLFISLLWIIELNTNTGIRKNLEQEIIQYNFKTSFFDIFVLAFFRFSGLLLGYAVLRLRHWWVIAVTTLVSSAFLIVKVILSELLSKGAFGYLLPIVSFVLAWLETWFLDFKVLPQEAEEERWYLAAQVAVARGPLLFSGALSEGQFYSPPESFAGSDNESDEEVAGKKSFSAQEREYIRQGKEATAVVDQILAQEENWKFEKNNEYGDTVYTIEVPFHGKTFILKTFLPCPAELVYQEVILQPERMVLWNKTVTACQILQRVEDNTLISYDVSAGAAGGVVSPRDFVNVRRIERRRDRYLSSGIATSHSAKPPTHKYVRGENGPGGFIVLKSASNPRVCTFVWILNTDLKGRLPRYLIHQSLAATMFEFAFHLRQRISELGARA

Kd: 1350 nM
B2: GSTP1: reference protein with published lutein Kd (protein, UniProt P09211 2-210, looked up)
Glutathione S-transferase P: PPYTVVYFPVRGRCAALRMLLADQGQSWKEEVVTVETWQEGSLKASCLYGQLPKFQDGDLTLYQSNTILRHLGRTLGLYGKDQQEAALVDMVNDGVEDLRCKYISLIYTNYEAGKDDYVKALPGQLKPFETLLSQNQGGKTFIVGDQISFADYNLLDLLLIHEVLAPGCLDAFPLLSAYVGRLSARPKLKAFLASPEYVNLPINGNGKQ
